# In PMC12528421:
# Experiments:
# Assay in all cases: EMSA
# [1] = target: T1, GST-STAT3;Flag-AS160 (human;human, UniProt P40763;O60343 1-770;1-1298, |)
# [2] = target: GST-STAT3 (human, UniProt P40763 1-770)
# [3] = target: T2, Flag-AS160 (human, UniProt O60343 1-1298)
# T2 sequence: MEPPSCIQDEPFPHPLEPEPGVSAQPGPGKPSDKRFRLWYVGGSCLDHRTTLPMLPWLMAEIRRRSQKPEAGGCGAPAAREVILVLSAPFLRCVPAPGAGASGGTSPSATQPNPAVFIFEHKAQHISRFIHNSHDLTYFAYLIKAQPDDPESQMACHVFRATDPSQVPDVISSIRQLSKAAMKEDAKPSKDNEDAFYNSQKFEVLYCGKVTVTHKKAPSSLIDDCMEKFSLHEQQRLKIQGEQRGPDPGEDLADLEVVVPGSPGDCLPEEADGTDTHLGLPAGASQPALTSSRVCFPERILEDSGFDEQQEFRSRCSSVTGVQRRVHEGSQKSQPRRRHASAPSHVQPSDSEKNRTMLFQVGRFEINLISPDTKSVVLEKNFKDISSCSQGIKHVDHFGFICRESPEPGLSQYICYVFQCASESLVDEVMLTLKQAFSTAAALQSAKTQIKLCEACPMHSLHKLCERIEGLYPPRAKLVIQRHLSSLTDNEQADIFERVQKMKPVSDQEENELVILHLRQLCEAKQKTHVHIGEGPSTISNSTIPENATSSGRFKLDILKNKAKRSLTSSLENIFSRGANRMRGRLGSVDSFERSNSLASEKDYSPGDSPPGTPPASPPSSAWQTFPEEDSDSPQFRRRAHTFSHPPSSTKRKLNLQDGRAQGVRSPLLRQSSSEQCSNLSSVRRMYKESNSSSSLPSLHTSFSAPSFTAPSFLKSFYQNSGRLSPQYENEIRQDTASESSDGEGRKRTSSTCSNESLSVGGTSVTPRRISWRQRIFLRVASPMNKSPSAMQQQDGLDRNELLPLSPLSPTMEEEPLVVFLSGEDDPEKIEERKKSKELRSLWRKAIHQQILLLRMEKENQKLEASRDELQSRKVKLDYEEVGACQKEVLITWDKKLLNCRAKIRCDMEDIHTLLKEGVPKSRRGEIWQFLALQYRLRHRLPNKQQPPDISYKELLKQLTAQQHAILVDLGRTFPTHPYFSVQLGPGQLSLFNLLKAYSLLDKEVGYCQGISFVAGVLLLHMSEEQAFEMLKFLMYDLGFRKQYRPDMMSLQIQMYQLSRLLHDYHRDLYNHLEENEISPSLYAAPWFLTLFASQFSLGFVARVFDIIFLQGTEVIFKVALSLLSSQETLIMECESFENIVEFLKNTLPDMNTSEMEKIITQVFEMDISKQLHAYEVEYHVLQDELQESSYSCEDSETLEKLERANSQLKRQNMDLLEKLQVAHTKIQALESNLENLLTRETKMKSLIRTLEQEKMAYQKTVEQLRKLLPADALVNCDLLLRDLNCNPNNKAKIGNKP
# [4] = target: T1, GST-STAT3;Flag-AS160; remark: listed apart in the source
# T1 sequence (P40763 whole entry, one chain of several): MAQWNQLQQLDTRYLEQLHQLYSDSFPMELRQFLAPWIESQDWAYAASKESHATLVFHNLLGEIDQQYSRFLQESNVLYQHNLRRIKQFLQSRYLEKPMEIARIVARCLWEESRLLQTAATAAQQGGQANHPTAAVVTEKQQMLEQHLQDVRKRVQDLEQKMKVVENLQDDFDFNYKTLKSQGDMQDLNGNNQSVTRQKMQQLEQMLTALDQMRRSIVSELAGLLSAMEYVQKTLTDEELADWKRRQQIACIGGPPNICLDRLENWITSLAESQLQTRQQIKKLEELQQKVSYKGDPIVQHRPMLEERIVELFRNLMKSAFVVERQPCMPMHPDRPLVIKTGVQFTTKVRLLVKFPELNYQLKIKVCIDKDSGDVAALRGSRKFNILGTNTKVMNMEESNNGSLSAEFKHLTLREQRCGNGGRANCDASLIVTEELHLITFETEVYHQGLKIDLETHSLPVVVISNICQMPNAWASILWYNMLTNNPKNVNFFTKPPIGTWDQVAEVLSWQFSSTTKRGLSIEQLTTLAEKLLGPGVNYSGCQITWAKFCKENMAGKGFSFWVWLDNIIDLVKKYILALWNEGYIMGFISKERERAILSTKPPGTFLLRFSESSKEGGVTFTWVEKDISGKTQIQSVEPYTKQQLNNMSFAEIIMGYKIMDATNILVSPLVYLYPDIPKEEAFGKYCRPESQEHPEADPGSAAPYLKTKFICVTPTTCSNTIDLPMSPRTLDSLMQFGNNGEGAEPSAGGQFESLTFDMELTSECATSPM
# GST-STAT3, sequence (P40763 whole entry): as the sequence (P40763 whole entry, one chain of several) above
Binder,binding result [1],binding result [2],binding result [3],binding signal [4] [fold vs STAT3 alone]
Pax7 promoter bind site 2 probe (dsDNA) DNA 1: ATCCCATCCCCGGAAGCCCTCCCATCCCCGGAAGCCCTCCCATCCCCGGAAGCCC DNA 2: GGGCTTCCGGGGATGGGAGGGCTTCCGGGGATGGGAGGGCTTCCGGGGA,binds,binds,no binding,–
Myod1 promoter bind site 3 probe (dsDNA) DNA 1: CAGATATTCTCTGAGCCATTCCCAGATGAGATATTCTCTGAGCCATTCCCAGATGG DNA 2: CCATCTGGGAATGGCTCAGAGAATATCTCATCTGGGAATGGCTCAGAGAAT,binds,binds,no binding,–
Myod1 promoter bind site 2 probe (dsDNA) DNA 1: ACATTGTTCCTGGATATGACATTGTTCCTGGATATGACATTGTTCCTGGATATGA DNA 2: TCATATCCAGGAACAATGTCATATCCAGGAACAATGTCATATCCAGGAA,binds,binds,no binding,–
Classical STAT3 motif probe (dsDNA) DNA 1: GATCCTTCTGGGAATTCCGATCCTTCTGGGAATTCCGATCCTTCTGGGAATTCC DNA 2: GGAATTCCCAGAAGGATCGGAATTCCCAGAAGGATCGGAATTCCCAGA,–,binds,no binding,> 2
Pax7 promoter bind site 3 probe (dsDNA) DNA 1: AATTCTTCCGGGGATGTCAATTCTTCCGGGGATGTCAATTCTTCCGGGGATGTC DNA 2: GACATCCCCGGAAGAATTGACATCCCCGGAAGAATTGACATCCCCGGA,binds,binds,no binding,–
Myod1 promoter bind site 1 probe (dsDNA) DNA 1: ATTGGATTCCTGGCATCCGTTGGATTCCTGGCATCCGTTGGATTCCTGGCATCCG DNA 2: CGGATGCCAGGAATCCAACGGATGCCAGGAATCCAACGGATGCCAGGAA,binds,binds,no binding,–
Pax7 promoter bind site 1 probe (dsDNA) DNA 1: ATATGTTTACAGAAAGACATATGTTTACAGAAAGACATATGTTTACAGAAAGACA DNA 2: TGTCTTTCTGTAAACATATGTCTTTCTGTAAACATATGTCTTTCTGTAA,binds,binds,no binding,–
